Results on one substance are retold here after publication doi:10.1101/2022.05.05.490751.

Holding throughout (assay): SPR
On the technique in general: Surface plasmon resonance follows binding to a sensor surface in real time, without labels.

Assay [1] has as its target NYE 4D peptide on HLA-A*02:01.
Assay [2] has as its target NYE 3A peptide on HLA-A*02:01.
Assay [3] deals with NYE 9V peptide (NYE-ESO157-165, heteroclitic 9V variant) on HLA-A*02:01.
Assay [4] addresses NYE 4E5E8E peptide on HLA-A*02:01.
Assay [5] deals with NYE 6V peptide on HLA-A*02:01.
Assay [6] addresses NYE 6T peptide on HLA-A*02:01.
In assay [7] the target is NYE 3Y peptide on HLA-A*02:01.

On to Soluble 1G4 TCR, for which the Kd in assay [1] was 139 µM; in assay [2], 7 µM; in assay [3] it was 8 µM; in assay [4] it was 18 µM; in assay [5], 17 µM; in assay [6] it was 161 µM. This substance also yielded a dissociation constant Kd in assay [7] of 55 µM.

Broadly, the Kd is the free concentration of one partner at which half of the binding sites on the other are occupied at equilibrium, for simple one-to-one binding.
